Source: patent US20240117030A1 (Pfizer, published 2024)
Each block holds one binder with its values, some of them ahead of it.

Tests used:
[1] = molecular target: T1, human IL-4R alpha (human, UniProt P24394 26-825); test: cell-based or functional assay
[2] = molecular target: T1, human IL-4R alpha; test: cell-based or functional assay; remark: listed apart in the source
[3] = molecular target: T2, recombinant human TSLP (glycosylated long form) (human, UniProt Q969D9 29-159); test: competition ELISA on coated TSLP; competitor biotinylated TSLP-0001 (69 pM)
T2 construct: also called hTSLP; lfhTSLP

[4] = molecular target: T2, recombinant human TSLP (glycosylated …); test: cell-based or functional assay
[5] = molecular target: T2, recombinant human TSLP (glycosylated …); test: cell-based or functional assay; remark: listed apart in the source
[6] = molecular target: T2, recombinant human TSLP (glycosylated …); test: cell-based or functional assay; remark: listed apart in the source
[7] = molecular target: T3, human TSLP short form (human, UniProt Q969D9-2 1-63, limits assumed); test: SPR (Biacore 8K, 37 C), antibody captured on anti-Fab antibody on a CM5 chip, 300 nM short form TSLP injected (concentration from Example 79)
T3 construct: also called sfTSLP; TSLPsf Avi V5 His 10 Biotin

[8] = molecular target: T4, recombinant cynomolgus monkey IL-23 (p19+p40) (cynomolgus monkey, UniProt H6WS56 20-189; G7P6S2 23-328); test: SPR (Biacore T200, 37 C), antibody captured by anti-human Fc, cytokine injected
T4 construct: also called Cyno IL-23
T4 sequence (p19): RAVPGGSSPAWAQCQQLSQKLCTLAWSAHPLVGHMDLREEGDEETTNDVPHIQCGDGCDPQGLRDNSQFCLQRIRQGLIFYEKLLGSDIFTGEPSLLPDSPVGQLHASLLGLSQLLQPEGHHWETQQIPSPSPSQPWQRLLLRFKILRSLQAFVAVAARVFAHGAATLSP
T4 sequence (p40): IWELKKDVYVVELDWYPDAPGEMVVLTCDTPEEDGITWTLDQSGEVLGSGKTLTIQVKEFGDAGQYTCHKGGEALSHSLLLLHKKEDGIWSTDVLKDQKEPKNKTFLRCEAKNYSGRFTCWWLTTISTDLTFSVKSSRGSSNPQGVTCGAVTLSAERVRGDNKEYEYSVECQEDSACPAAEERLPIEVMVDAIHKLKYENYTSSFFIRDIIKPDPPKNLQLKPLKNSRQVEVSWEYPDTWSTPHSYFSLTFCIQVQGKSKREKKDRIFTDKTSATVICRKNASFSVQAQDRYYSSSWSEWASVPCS

[9] = molecular target: T5, recombinant human IL-23 (p19+p40) (human, UniProt Q9NPF7 20-189; P29460 23-328); test: as above
T5 sequence (looked up) 1: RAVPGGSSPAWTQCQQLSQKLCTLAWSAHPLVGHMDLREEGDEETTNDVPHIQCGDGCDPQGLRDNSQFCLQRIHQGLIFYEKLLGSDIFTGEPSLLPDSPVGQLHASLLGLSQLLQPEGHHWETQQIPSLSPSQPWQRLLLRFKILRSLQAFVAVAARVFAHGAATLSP
T5 sequence (looked up) 2: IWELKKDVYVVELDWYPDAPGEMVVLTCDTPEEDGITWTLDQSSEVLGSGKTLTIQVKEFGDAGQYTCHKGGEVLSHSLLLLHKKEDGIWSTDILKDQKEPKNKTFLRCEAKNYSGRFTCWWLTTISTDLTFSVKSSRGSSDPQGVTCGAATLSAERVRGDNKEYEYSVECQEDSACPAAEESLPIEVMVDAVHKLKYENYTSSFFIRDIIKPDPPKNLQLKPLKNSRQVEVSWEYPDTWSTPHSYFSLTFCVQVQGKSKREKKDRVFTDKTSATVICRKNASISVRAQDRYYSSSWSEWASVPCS

[10] = molecular target: T6, recombinant cynomolgus monkey IL-12 (p35+p40) (cynomolgus monkey, UniProt A0A2K5V4L8 57-253; G7P6S2 23-328); test: as above
T6 construct: also called Cyno IL-12
T6 sequence (p35): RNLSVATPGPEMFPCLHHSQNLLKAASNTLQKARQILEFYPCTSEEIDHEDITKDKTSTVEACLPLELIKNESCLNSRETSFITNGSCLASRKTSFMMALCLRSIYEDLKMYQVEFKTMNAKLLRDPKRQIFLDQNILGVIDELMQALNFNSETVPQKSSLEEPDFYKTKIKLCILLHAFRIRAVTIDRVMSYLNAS
T6 sequence (p40): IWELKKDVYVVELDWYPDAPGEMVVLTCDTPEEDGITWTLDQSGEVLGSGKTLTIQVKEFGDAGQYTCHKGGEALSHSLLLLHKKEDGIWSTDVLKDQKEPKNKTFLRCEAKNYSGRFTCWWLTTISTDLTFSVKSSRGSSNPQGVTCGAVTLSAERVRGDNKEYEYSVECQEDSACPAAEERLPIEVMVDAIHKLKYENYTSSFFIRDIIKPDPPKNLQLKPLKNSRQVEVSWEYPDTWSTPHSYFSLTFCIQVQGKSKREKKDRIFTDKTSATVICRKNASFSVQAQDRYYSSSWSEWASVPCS

[11] = molecular target: T7, recombinant human IL-12 (p35+p40) (human, UniProt P29459 23-219; P29460 23-328); test: as above
T7 sequence (looked up) 1: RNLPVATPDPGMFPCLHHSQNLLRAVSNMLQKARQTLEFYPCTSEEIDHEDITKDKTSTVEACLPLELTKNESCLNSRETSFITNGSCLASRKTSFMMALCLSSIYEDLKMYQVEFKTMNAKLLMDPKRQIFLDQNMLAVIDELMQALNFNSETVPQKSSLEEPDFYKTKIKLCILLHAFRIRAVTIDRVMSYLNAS
T7 sequence (looked up) 2: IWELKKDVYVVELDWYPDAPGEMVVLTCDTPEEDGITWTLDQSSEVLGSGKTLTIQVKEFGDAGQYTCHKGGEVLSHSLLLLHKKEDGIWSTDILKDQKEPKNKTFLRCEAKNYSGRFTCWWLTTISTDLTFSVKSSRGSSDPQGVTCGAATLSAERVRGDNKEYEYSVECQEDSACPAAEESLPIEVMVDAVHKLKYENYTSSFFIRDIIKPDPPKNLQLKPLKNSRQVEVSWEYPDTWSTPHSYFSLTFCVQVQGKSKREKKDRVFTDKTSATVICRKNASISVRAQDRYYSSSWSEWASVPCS

[12] = molecular target: T8, recombinant human IL-33 (R&D Systems 3625-IL) (human, UniProt O95760 112-270, limits assumed); test: cell-based or functional assay
T8 sequence (looked up): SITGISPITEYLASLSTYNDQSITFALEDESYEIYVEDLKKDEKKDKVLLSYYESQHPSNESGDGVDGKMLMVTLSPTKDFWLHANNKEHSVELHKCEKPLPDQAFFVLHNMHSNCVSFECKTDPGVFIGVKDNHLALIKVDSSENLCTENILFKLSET

[13] = molecular target: T9, cynomolgus monkey IL-33 (Pfizer) (cynomolgus monkey, UniProt A0A2K5W3I1 112-269); test: cell-based or functional assay
T9 sequence: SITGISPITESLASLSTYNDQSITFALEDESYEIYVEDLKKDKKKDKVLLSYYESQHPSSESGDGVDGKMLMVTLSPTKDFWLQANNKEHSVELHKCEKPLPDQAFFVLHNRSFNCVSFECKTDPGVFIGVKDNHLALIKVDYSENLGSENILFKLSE

[14] = molecular target: T8, recombinant human IL-33 (R&D Systems …); test: cell-based or functional assay; remark: listed apart in the source

B1: Dupilumab (antibody, V domains shown)
VH: EVQLVESGGGLEQPGGSLRLSCAGSGFTFRDYAMTWVRQAPGKGLEWVSSISGSGGNTYYADSVKGRFTISRDNSKNTLYLQMNSLRAEDTAVYYCAKDRLSITIRPRYYGLDVWGQGTTVTVSS
VL: DIVMTQSPLSLPVTPGEPASISCRSSQSLLYSIGYNYLDWYLQKSGQSPQLLIYLGSNRASGVPDRFSGSGSGTDFTLKISRVEAEDVGFYYCMQALQTPYTFGQGTKLEIKR
- IC50 (median), IL-4 induced CD23 expression on human monocytes [1]: 0.104 nM
- IC50 (median), IL-13 induced CD23 expression on human monocytes [2]: 0.0932 nM

B2: TSLP-0100 (antibody, human IgG1, V domains shown)
VH: QMQLVESGGGVVQPGRSLRLSCAASGFTFRTYGMHWVRQAPGKGLEWVAVIWYDGSNKHYADSVKGRFTISRDNSKNTLYLQMNSLRAEDTAVYYCARAPQWELVHEAFDIWGQGTMVTVSS
VL: SYVLTQPPSVSVAPGQTARITCGGNNLGSKSVHWYQQKPGQAPVLVVYDDSDRPSWIPERFSGSNSGNTATLTISRGEAGDEADYYCQVWDSSSDHVVFGGGTKLTVLG
notes: also called IL413TSLP-0100
- IC50 [3]: 0.87 nM
- a-TSLP TARC bioassay (fold change to TSLP-0001) [4]: 0.9 fold
- a-TSLP bioassay (IC50, pM) [5]: 24.6 pM
- anti-hTSLP TARC bioactivity (fold change to TSLP-0001) [6]: 0.9 fold

B5: IL13433-1258 (antibody)
heavy: EVQLVESGGGLVQPGGSLRLSCAASGFTFSSYWMYWVRQAPGKGLEWVAAITPNAGEDYYPESVKGRFTISRDNAKNSLYLQMNSLRAEDTAVYYCARGQYYYTKYSLGYWGQGTLVTVSSASTKGPSVFPLAPSSKSTSGGTAALGCLVKDYFPEPVTVSWNSGALTSGVHTFPAVLQSSGLYSLSSVVTVPSSSLGTQTYICNVNHKPSNTKVDKKVEPKSCRKTHTCPPCPAPEAAGAPSVFLFPPKPKDTLMISRTPEVTCVVVDVSHEDPEVKFNWYVDGVEVHNAKTKPREEQYNSTYRVVSVLTVLHQDWLNGKEYKCKVSNKALPAPIEKTISKAKGQPREPQVYTLPPSREEMTKNQVSLTCLVKGFYPSDIAVEWESNGQPENNYKTTPPVLDSDGSFFLYSRLTVDKSRWQQGNVFSCSVLHEALHSHYTQKSLSLSPGK
light 1: DIQMTQSPSSLSASVGDRVTITCRASQPIHNHLDWYQQKPGKAPKLLIYFGKNLQEGVPSRFSGSGSGTDFTLTISSLQPEDFATYYCFQYKKGWSFGGGTKVEIKRTVAAPSVFIFPPSDEQLKSGTASVVCLLNNFYPREAKVQWKVDNALQSGNSQESVTEQDSKDSTYSLSSTLTLSKADYEKHKVYACEVTHQGLSSPVTKSFNRGEC
chain 1: DIQMTQSPSSLSASVGDRVTITCKASESVDHFGWSLVHWYQQKPGKAPKLLIYRASNLESGVPSRFSGSGSGTDFTLTISSLQPEDFATYYCQQSNEDPWTFGGGTKVEIKRTVAAPSVFIFPPSDEQLKSGTASVVCLLNNFYPREAKVQWKVDNALQSGNSQESVTEQDSKDSTYSLSSTLTLSKADYEKHKVYACEVTHQGLSSPVTKSFNRGECGGGGSEVTLRESGPALVKPTQTLTLTCTFSGFSLSNFGEGLSWIRQPPGKGLEWLAHIYWDDDKRYNPSLKSRLTISKDTSRNQVVLTMTNMDPVDTATYYCARRETVFYWYFDVWGQGTTVTVSSASTKGPSVFPLAPSSKSTSGGTAALGCLVKDYFPEPVTVSWNSGALTSGVHTFPAVLQSSGLYSLSSVVTVPSSSLGTQTYICNVNHKPSNTKVDKKVEPKSCEKTHTCPPCPAPEAAGAPSVFLFPPKPKDTLMISRTPEVTCVVVDVSHEDPEVKFNWYVDGVEVHNAKTKPREEQYNSTYRVVSVLTVLHQDWLNGKEYKCKVSNKALPAPIEKTISKAKGQPREPQVYTLPPSREEMTKNQVSLTCEVKGFYPSDIAVEWESNGQPENNYKTTPPVLDSDGSFFLYSKLTVDKSRWQQGNVFSCSVLHEALHSHYTQKSLSLSPGK
light 2: DIQMTQSPSSLSASVGDRVTITCRASQSVDEEGDSYMNWYQQKPGKAPKLLIYAASNLESGVPSRFSGSGSGTDFTLTISSLQPEDFATYYCQQSNKDPPTFGGGTKVEIKRTVAAPSVFIFPPSDEQLKSGTASVVCLLNNFYPREAKVQWKVDNALQSGNSQESVTEQDSKDSTYSLSSTLTLSKADYEKHKVYACEVTHQGLSSPVTKSFNRGEC
chain 2: EVQLVESGGGLVQPGGSLRLSCAASGFTFSSYAMSWVRQAPGKGLEWVASISSGDTTYYPDSVKGRFTISRDNAKNSLYLQMNSLRAEDTAVYYCARNEGYYFGLTLWGQGTLVTVSSASTKGPSVFPLAPSSKSTSGGTAALGCLVKDYFPEPVTVSWNSGALTSGVHTFPAVLQSSGLYSLSSVVTVPSSSLGTQTYICNVNHKPSNTKVDKKVEPKSC
- IC50, IL-33-induced SEAP activity in HEK-Blue IL-33 SEAP cells (median) [12]: 0.0134 nM
- IC50, IL-33-induced SEAP activity in HEK-Blue IL-33 SEAP cells (median) [13]: 0.274 nM
- IC50 (pM) HEK-Blue IL-33 SEAP (mean) [14]: 13.4 pM

Second part, the binder after the results:

- binding result [7]: no binding (tested: 300 nM)
B3: TSLP-0875 (antibody, human IgG1, lambda, V domains shown)
VH: QMQLVESGGGVVQPGRSLRLSCAASGFTFRTYGMHWVRQAPGKGLEWVAVIWYDGSNKHYADSVKGRFTISRDNSKNTLYLQMNSLRAEDTAVYYCARAPQWYLVHEAFDIWGQGTMVTVSS
VL: SYVLTQPPSVSVAPGQTARITCGGNNLGSKSVHWYQQKPGQAPVLVVYDDKDRPSWIPERFSGSNSGNTATLTISRGEAGDEADYYCQVWDSKSDHVVFGGGTKLTVLG

- Kd [8]: 0.317 nM
- Kd [9]: 0.16 nM
- Kd [10]: 0.368 nM
- Kd [11]: 0.156 nM
B4: p40-0003 (antibody, human IgG1, kappa, V domains shown)
VH: EVQLVQSGAEVKKPGESLKISCKGSGYSFTTYWLGWVRQMPGKGLDWIGIMSPVDSDIRYSPSFQGQVTMSVDKSITTAYLQWNSLKASDTAMYYCARRRPGQGYFDFWGQGTLVTVSS
VL: DIQMTQSPSSLSASVGDRVTITCRASQGISSWLAWYQQKPEKAPKSLIYAASSLQSGVPSRFSGSGSGTDFTLTISSLQPEDFATYYCQQYNIYPYTFGQGTKLEIKR
notes: also called p40 mAb; ustekinumab (C230) variable regions on human IgG1 effector-null
